Results taken from patent US7202212 (BETH ISRAEL DEACONESS MEDICAL CENTER, dated 2007).

Target: T1, mouse α7 subunit of the 20S proteasome, full length (mouse, UniProt O70435 1-255)
T1 construct: also called a7; full length a7 construct
T1 sequence (looked up): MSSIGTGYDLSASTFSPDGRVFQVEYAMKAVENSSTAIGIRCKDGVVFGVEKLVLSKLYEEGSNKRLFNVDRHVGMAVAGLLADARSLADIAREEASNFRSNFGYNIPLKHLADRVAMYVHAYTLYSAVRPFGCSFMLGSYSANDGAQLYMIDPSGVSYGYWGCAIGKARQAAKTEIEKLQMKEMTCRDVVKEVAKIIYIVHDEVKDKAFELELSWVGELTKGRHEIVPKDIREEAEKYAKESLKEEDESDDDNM
Test: yeast two-hybrid screen of a mouse cDNA library with PR-39 exon 4 as bait
Protocol: To identify possible intracellular targets of PR-39 peptide action, a yeast two-hybrid screen of mouse cDNA library was performed using the unique 4th exon DNA sequence of porcine PR-39 gene as "bait". […] All four clones encoded overlapping identical cDNA sequences which are highly homologous to the sequence of the human α7 (HC8) subunit of the 20S proteasome (GeneBank accession AF055983).

binding result: binds
B1: porcine PR-39 peptide (4th exon, amino acids 131 to 169) in pAS2-1 vector as yeast two-hybrid bait (peptide, not shown: large carriers)
chain: RRRPRPPYLPRPRPPPFFPPRLPPRIPPGFPPRFPPRFP
notes: Bait of the yeast two-hybrid assay; The 39 residues are amino acids 131 to 169 of the porcine precursor; also called PR-39 construct
